The values below come from paper PMC5186407 (Journal of molecular biology, 2016).

Assay [1] deals with Hsp70 NBD (Homo sapiens) (UniProt P0DMV8). The following applies: cited from earlier work.
Assay [2] deals with Hsp27c, truncated Hsp27 with only the core α-crystallin domain (human). In words: flow cytometry protein interaction assay. On the technique in general: Flow cytometry measures light scatter and fluorescence of single cells or particles in a stream.
Assay [3] deals with Hsp27-3D, triple phospho-mimetic mutant of Hsp27 (human) (UniProt P04792). In words: flow cytometry protein interaction assay.
For assay [4], the target named is BAG3 with the first IPV motif mutated to GPG (IPV1) (UniProt O95817). As to the kind of experiment: ITC. In general terms: In ITC the heat of successive injections is recorded.
Assay [5] concerns the target BAG3 Δ200–213 (UniProt O95817). As to the kind of experiment: ITC.
Assay [6] has as its target BAG3 Δ87–101 (UniProt O95817). As to the kind of experiment: ITC.
Assay [7] has as its target BAG3 Δ87–101 & Δ200–213 (UniProt O95817 1-575, Δ87–101 | Δ200–213, Alexa Fluor label in the FCPIA experiments). In words: flow cytometry protein interaction assay.

Some results are limits rather than exact numbers.

Hsp70 NBD (Homo sapiens), sequence (P0DMV8 2-386): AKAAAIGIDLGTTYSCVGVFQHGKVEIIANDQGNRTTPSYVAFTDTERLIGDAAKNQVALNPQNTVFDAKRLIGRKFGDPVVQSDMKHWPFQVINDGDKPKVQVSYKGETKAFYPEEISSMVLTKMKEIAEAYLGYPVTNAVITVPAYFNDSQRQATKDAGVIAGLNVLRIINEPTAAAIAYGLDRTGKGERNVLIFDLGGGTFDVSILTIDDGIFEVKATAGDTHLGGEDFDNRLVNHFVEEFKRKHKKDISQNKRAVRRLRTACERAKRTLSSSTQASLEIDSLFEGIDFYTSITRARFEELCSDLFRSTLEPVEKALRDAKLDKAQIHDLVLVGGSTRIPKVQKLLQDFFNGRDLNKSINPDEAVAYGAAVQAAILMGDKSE

Usually Kd stands for the free concentration of one partner at which half of the binding sites on the other are occupied at equilibrium, for simple one-to-one binding. As for BAG3 (from UniProt O95817), the Kd in assay [1] was 0.01 µM.
For “BAG3 Δ87–101 & Δ200–213 (from UniProt O95817 1-575) (natural protein)”, the fold weakening of the affinity against BAG3 with both IPV motifs in assay [2] is greater than 25 fold. Further, the Kd in assay [3] was greater than 50 µM.
By stoichiometry N is commonly meant a count of units in the complex or per binding partner. As for “Hsp27c, truncated Hsp27 with only the core α-crystallin domain (domain or fragment)”, the stoichiometry N in assay [4], in assay [5] and in assay [6] was 1 Hsp27c:BAG3 in each case.

B1: Hsp20 (HSPB6) (natural protein, human, UniProt O14558 1-160, looked up)
chain: MEIPVPVQPSWLRRASAPLPGLSAPGRLFDQRFGEGLLEAELAALCPTTLAPYYLRAPSVALPVAQVPTDPGHFSVLLDVKHFSPEEIAVKVVGEHVEVHARHEERPDEHGFVAREFHRRYRLPPGVDPAAVTSALSPEGVLSIQAAPASAQAPPPAAAK
modifications: biotin (EZ-link NHS-Biotin) in the FCPIA experiments
Turning to B1, the Kd in assay [7] is greater than 50 µM.
